Laboratory results reported in US8507433B1, “Cardioprotective effects of GHRH agonists” (University of Miami, priority 2010, dated 2013).
Several values for one entry are separate records, joined by “and”; a condition that tells them apart may be missing. Equal values may be shown once. Marks after values point to notes of the source that are not given here.

Assays:
[1] = system: female 6-month-old Fisher-344 rats, MI induced by coronary artery ligation; assay: Body weight and heart weight after MI, 4-week treatment; type: in vivo, rat; settings: mean±SEM; for Heart weight (HW) / body weight (BW) after MI: rats post-MI; for Heart weight (HW): after 4-week treatment; for body weight (BW) after MI: week 4, s.c. twice daily 4 weeks, GHRH-A 50 μg/kg or rrGH 0.5 mg/kg; for body weight (BW), baseline: rats, baseline before MI and treatment
Procedure: (§1) MI induced by coronary artery ligation was performed in female 6-month-old Fisher-344 rats as described previously (40). Animals were randomly assigned to receive placebo, GHRH-agonist (GHRH-A [JI-38], 50 μg/kg) or rat recombinant GH (rrGH, 0.5 mg/kg) starting 2 hours post-surgery. All treatment was given subcutaneously twice daily for 4 weeks. The Institutional Animal Care and Use committee of University of Miami approved all protocols and experimental procedures.
(§2) At the end of the study, rat hearts were harvested for further analysis. Hearts were weighted and the basal portion, free of fibrotic tissue, was flash-frozen in liquid nitrogen for total RNA isolation and protein analysis. Remaining tissue was fixed with 10% formalin for histology.

serum GH = assay: Rat serum GH (ELISA) after 4-week treatment; type: in vivo; settings: rats post-MI, blood 1-2 hours after last injection, vs. placebo
Procedure: as §1
(§3) At the end of the study, blood was drawn 1-2 hours after the last rrGH or GHRH-A injection and the serum was stored at −80° C. until the measurements were done. All the samples were assayed together and each sample was assayed in duplicate. Rat serum GH was measured using a rat GH Enzyme-Linked Immunosorbent Assay (ELISA) Kit (DSL-10-72100, DSL Webster, Tex.), following the manufacturer's recommendations. This test is an enzymatically amplified “one-step” sandwich-type enzyme immunoassay, where standards, controls and unknown samples are incubated in microtitration wells precoated with the anti-rat GH antibody. The standard curve of the assay was established with samples provided by the manufacturer. Rat serum IGF-I was measured using a rat IGF-I Radioimmunoassay Kit (DSL-2900, DSL Webster, Tex.), after extraction with acid ethanol, following the manufacturer's recommendations. […]

serum IGF-I = assay: Rat serum IGF-I (radioimmunoassay) after 4-week treatment; type: in vivo; settings: rats post-MI, blood 1-2 hours after last injection, vs. placebo
Procedure: as §1, §3

[2] = system: female 6-month-old Fisher-344 rats, MI induced by coronary artery ligation; assay: Echocardiographic measurements post-MI; type: in vivo, rat; settings: echocardiography
Procedure: as §1
Echocardiographic measurements were obtained at baseline, 2 days, 1, 2 and 4 weeks. Echocardiographic assessments were performed in anesthetized rats (2% isoflurane inhalation) using a Vevo-770 echocardiogram (Visual Sonics Inc., Toronto, Ontario, Canada) equipped with a 17.5-MHz transducer. Cardiac dimensions: LV end diastolic (LVEDD), end systolic (LVESD) diameters and fractional shortening (FS) were recorded from M-mode images using averaged measurements from 3 to 5 consecutive cardiac cycles according to the American Society of Echocardiography (1). Ejection fraction (EF) was calculated from bi-dimensional long-axis parasternal views taken through the infarcted area. All images were analyzed using Vevo 770 3.0.0 software (Visual Sonics Inc., Toronto, Ontario, Canada).

[3] = system: female 6-month-old Fisher-344 rats, MI induced by coronary artery ligation; assay: Hemodynamic measurements (LV pressure-volume catheterization) post-MI; type: in vivo, rat; set-up: SW (stroke work) / Ees (end-systolic elastance): unit not given here; settings: rats post-MI after 4-week treatment; for Heart rate: LV catheterization; for LVEDP / LVEDV: preload
Procedure: as §1
Rats were anesthetized by intramuscular injection of a mixture of ketamine (100 mg/kg), xylazine (20 mg/kg) and acepromazine (10 mg/kg). A 2-F micromanometer tipped catheter (SPR-838, Millar Instruments, Houston, Tex.) was inserted into the right carotid artery and advanced retrograde into the left ventricle. Measurements were calibrated by injecting a hypertonic saline (15%) bolus to determine extra-ventricular conductance; relative volume units were converted to actual volume using the cuvette calibration method (2). All analyses were performed using PVAN 3.0 software (Millar Instruments, Houston, Tex.).

[4] = system: female 6-month-old Fisher-344 rats, MI induced by coronary artery ligation; assay: Histopathology: MI size, fibrosis, capillary density, myocyte width; type: in vivo, rat; settings: rats post-MI after 4-week treatment
Procedure: as §1, §2
Slides were prepared with H&E and Masson's trichrome stain to assess cardiac structure and the presence and extent of fibrosis and myocardial scar, respectively. The size of MI was determined using NIH Image version 1.30v for Windows to quantify the percentage area of fibrosis. An image-processing software (Imaging Processing Toolkit 5.0, Reindeer Graphics, Asheville, N.C.) and Adobe Photoshop CS2 (San Jose, Calif.) were used to assess the slides as previously described with minor modifications (3). The percentage of fibrosis was calculated by using the following formula: % fibrosis=fibrotic area/(fibrotic area+healthy area)
H&E stained sections of hearts from midventricular level were used to measure the myocyte width. At least 35-50 cardiomyocytes were counted and averaged at the level of the nuclei in non-infarcted remote myocardium.

GHRH-R mRNA = assay: Real-time PCR of mRNA for GHRH-R and β-actin in rat heart tissue; type: in vivo; settings: normalised to β-actin, Pfaffl method
Procedure: (§4) Total RNA from heart tissue was extracted using Trizol (Invitrogen, Carlsbad, Calif.). The quality of RNA isolated was tested using NanoDrop1000 (Thermo Fisher Scientific Inc., Wilmington, Del.). OD 260/280 ratio was in the range of 1.8 to 2.1 for all samples.
The expression of GHRHR was measured using real-time quantitative PCR as described previously by Havt et al (6).
We evaluated the mRNA expression of rat GHRH receptor (GHRH-R) and β-actin. The probes designed to evaluate the expression of GHRH-R and β-actin are 5′-/Cy5/ACCTCCGACTTTCTCAGTTCCTGTATGCCC/BHQ—2/-3′ and 5′-/6-FAM/ATCCTGCGTCTGGACCTGGCTGGC/BHQ—1/-3′, respectively. Gene specific primer sequences were the following: GHRH-R (sense) 5′-[…]-3′ and 5′-TGGTTTCCCTGGGCCTTGG-3′ (antisense) with a product size of 110 bp, β-actin: (sense) 5′-GGGTTACGCGCTCCCTCAT-3′ and 5′-[…]-3′ (antisense) with a product size of 133 bp.
All real-time PCR reactions were performed in the iCycler iQ™ Real-Time PCR Detection System (Bio-Rad, Hercules, Calif.). Thermal cycling conditions comprised an initial denaturation step at 95° C. for 3 min followed by 45 cycles at 95° C. for 30 sec and an annealing temperature at 60° C. for GHRH-R and β-actin for 1 min. As final steps, we included two cycles: one at 95° C. and the other at 60° C., both for 1 min. […]

[5] = system: Bcl2 and Bax gene expression; assay: Real-time PCR of pro-apoptotic and anti-apoptotic genes (Bax, Bcl2) in rat heart; type: in vivo; settings: rt-qPCR
Procedure: as §4
The monitoring of pro-apoptotic and anti-apoptotic genes was also assessed by real time PCR. First-strand cDNA was synthesized from 1 μg total RNA using the High-Capacity cDNA Reverse-Transcription Kit (Applied Biosystems, Inc., Foster City, Calif., USA), and ribosomal 18S RNA served as the housekeeping gene. We used TaqMan probes labeled with 6-carboxyfluorescein (FAM) for real-time RT-PCR reactions, according to manufacturer's protocol (Applied Biosystems, Inc., Foster City, Calif., USA). Data were analyzed by the threshold cycle (Ct) relative quantification method.

[6] = target: rat GHRH receptor (GHRHR) in membrane fractions from ischemic rat heart (rat) (UniProt Q02644); assay: radioligand binding: in vitro ligand competition assay with radioiodinated JV-1-42 on ischemic rat heart membrane fractions
Chain of UniProt Q02644 (Q02644 23-464): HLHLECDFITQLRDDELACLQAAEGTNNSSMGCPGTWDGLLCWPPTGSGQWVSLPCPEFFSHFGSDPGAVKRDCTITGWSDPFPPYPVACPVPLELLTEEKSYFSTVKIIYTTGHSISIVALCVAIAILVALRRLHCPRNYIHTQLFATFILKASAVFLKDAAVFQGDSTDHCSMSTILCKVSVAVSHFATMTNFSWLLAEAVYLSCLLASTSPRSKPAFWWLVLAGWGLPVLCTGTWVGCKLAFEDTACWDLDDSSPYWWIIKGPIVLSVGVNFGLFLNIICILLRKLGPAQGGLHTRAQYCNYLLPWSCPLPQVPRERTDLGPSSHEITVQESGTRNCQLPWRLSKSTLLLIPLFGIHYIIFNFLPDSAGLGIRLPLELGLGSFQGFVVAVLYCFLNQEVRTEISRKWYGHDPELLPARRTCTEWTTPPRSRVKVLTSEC

[7] = system: Ki67 positive cells and c-kit+ cardiac precursor cells in rat heart; assay: Immunostaining for Ki67 and c-kit positive cells in heart sections; type: in vivo; settings: remote zone, relative to placebo and GHRH-A
Procedure: as §1
Paraffin sections were deparaffinized and rehydrated by immersion in xylene and a graded series of ethanols. Antigen retrieval was performed by a heat-induced method with citrate buffer (Dako, Carpinteria, Calif.). After blocking with 10% normal donkey serum, sections were incubated with a primary antibody (table S3), at 37° C. for 1 hour, followed by application of secondary antibody. Omission of the primary antibodies on parallel sections was used as negative control. Nuclei were counterstained with DAPI (Invitrogen, Carlsbad, Calif.). The total numbers of positively-stained cells were quantified per slide to calculate the number of cells per unit volume (mm^3) on each sample. Morphometric analysis was performed by using Adobe Photoshop CS3 (San Jose, Calif.)

Row | Molecule | Heart weight (HW) [1] [mg] | body weight (BW) after MI [1] [g] | body weight (BW), baseline [1] [g] | serum GH (serum GH) | serum IGF-I (serum IGF-I) | EF ([2]; 4 weeks (W4) post-MI) | FS ([2]; 4 weeks (W4) post-MI) [%] | LVEDD ([2]; 4 weeks (W4) post-MI) [mm] | EF ([2]; baseline (BSL)) [%] | FS ([2]; baseline (BSL)) [%] | LVEDD ([2]; baseline (BSL)) [mm] | LVESD ([2]; baseline (BSL)) [mm] | Heart rate [3] [bpm] | LVESP ([3]; afterload) [mmHg] | Ees (end-systolic elastance) ([3]; contractility) | LVEDP [3] [mmHg] | LVEDV [3] [µL] | capillary density [4] | Ratio (GHRH-R gene expression level in treatment group compared to placebo group) (GHRH-R mRNA) | other results
1 | [Dat^1, Gln^8, Orn^12,21, Abu^15, Nle^27, Asp^28, Agm^29]hGH-RH(1-29)NH2 [GHRH-A] | 695 ± 26 | 225 ± 3 | 231 ± 5 | did not increase | did not increase | 47±4% and 47.2 ± 4.0 ¶ % | 28.7±3.3 | 7.7 ± 0.2 | 85.7 ± 1.6 | 53.1 ± 1.0 | 6.3 ± 0.2 | 2.9 ± 0.1 | 270 ± 17 | 83 ± 1.1 | 0.19 ± 0.02 | 8 ± 0.5 | 421 ± 26 | 0.006±0.001 /mm^2 | 1.91 | Ea (arterial elastance) ([3]; afterload): 0.5 ± 0.004 mmHg/μl; expression of anti-apoptotic gene (Bcl2) [5]: upregulated; expression of pro-apoptotic gene (Bax) [5]: trended to be downregulated; ratio between Bax and Bcl2 expression ([5]; in comparison to placebo or rrGH): significantly reduced
2 | GHRH antagonist JV-1-42 (radioiodinated derivative) (peptide) |  |  |  |  |  |  |  |  |  |  |  |  |  |  |  |  |  |  |  | Bmax (fmol/mg protein) [6]: 51.3; Kd [6]: 860 pM
3 | rrGH: Rat recombinant GH supplied by National Hormone and Pituitary Program (NHPP) (protein, UniProt P01244 27-216, looked up) Somatotropin: FPAMPLSSLFANAVLRAQHLHQLAADTYKEFERAYIPEGQRYSIQNAQAAFCFSETIPAPTGKEEAQQRTDMELLRFSLLLIQSWLGPVQFLSRIFTNSLMFGTSDRVYEKLKDLEEGIQALMQELEDGSPRIGQILKQTYDKFDANMRSDDALLKNYGLLSCFKKDLHKAETYLRVMKCRRFAESSCAF | 850 ± 38 | 256 ± 3 | 217 ± 4 | 679 ± 196 ng/mL | 1052 ± 91 ng/mL | 44±2% and 44.3 ± 2.3% | 20.3±1.3 | 8.6 ± 0.1 | 89.2 ± 0.4 | 58.2 ± 0.7 | 5.9 ± 0.1 | 2.3 ± 0.1 | 247 ± 6.8 | 91 ± 2.3 | 0.33 ± 0.12 | 10 ± 1.8 | 351 ± 38 | 0.02±0.002 /mm^2 | 2.10 * | LVESD ([2]; 4 weeks (W4) post-MI): 6.8 ± 0.2 mm; PRSW ([3]; contractility): 48 ± 5.0 mmHg; dP/dtmax ([3]; contractility): 6243 ± 313 mmHg/s; dP/dtmax_EDV ([3]; contractility): 17.5 ± 4.3 mmHg/s/l; dP/dtmin ([3]; lusitropy): 4028 ± 334 mmHg/s; CO (cardiac output) ([3]; pressure-volume derived): 22.5 ± 3.4 mL/min; EF ([3]; pressure-volume derived): 26.2 ± 1.7%; SV (stroke volume) ([3]; pressure-volume derived): 98 ± 13 µL; SW (stroke work) ([3]; pressure-volume derived): 6920 ± 790; Ea/Ees ([3]; ratio between arterial elastance and end-systolic elastance): 4.4 ± 0.6; TAU (G) ([3]; relaxation time constant, Glantz method): 19.9 ± 0.4 ms; MI size (infarct size) ([4]; Masson's trichrome): 45±2%; percentage of ventricular fibrosis [4]: 27±1%; expression of Ki67 positive cells [7]: higher
